Test results reported in patent US20030147861A1, “Compounds and methods for the modulation of immune responses” (Genesis Research and Development Corporation Limited, priority 2001, published 2003).
Entries after “also recorded” stand apart in the source; their conditions may differ.

What was measured:
[1] = system: TLR2, TLR4 and CD14 on THP-1 cells (IL-12p40, TNFα, IL-10 production); assay: Cytokine production by THP-1 cells pre-treated with mAbs to TLR2, TLR4 or CD14 and cultured with M. vaccae derivatives (ELISA); type: cell-based, human; conditions: mAb pre-treatment 60 minutes, 0.32-1000 μg/mL; stimulus 5 μg/mL, 24 hours
Method: In subsequent experiments, the effect of antibodies to TLR2, TLR4 and CD14 on the production of IL-12p40, IL-10 and TNF-α in THP-1 cells in response to M. vaccae derivatives was examined as follows.
Prior to culture with M. vaccae derivatives, 50 μL of THP-1 cells in cRPMI-10 were pre-treated in duplicate microplate wells with 50 μL of serially diluted Functional Grade mabs to human TLR2 (clone TL2.1, IgG2a isotype, eBioscience cat. no. 16-9922-82), TLR4 (clone HTA125, IgG2a isotype, eBioscience cat. no. 16-9927-82), or CD14 (clone RM052, IgG2a isotype, Coulter cat. no. IM0643), with a cocktail of all three antibodies or with control mAb (clone AcV1, IgG2a isotype, eBioscience cat. no. 16-4724-85), with each mAb used at a final concentration of 1000 μg/mL, 200 μg/mL, 40 μg/mL, 8.0 μg/mL, 1.60 μg/mL, or 0.32 μg/mL, or with no mAb. Pretreatment of cells with mAbs was for 60 minutes in a water-jacketed, humidified incubator at 37° C. supplied with 5% CO2 in air.
At the end of the 24-hour incubation period, the microplates were centrifuged at 200×g for 5 minutes and the supernatants collected and transferred to a sterile 96-well round-bottom plate.
IL-12p40, TNFα, and IL-10 content in the microculture supernatants was determined by sandwich ELISA using commercially available sets according to the manufacturer's recommendations. […]

[2] = system: CD40, CD80 and CD86 on monocytes; assay: CD40, CD80 and CD86 expression on monocytes (3 color flow cytometry); type: cell-based, human; conditions: 20 ug/ml, 48 hours, vs non-stimulated cells
From the text: (§1) Stimulated cells were harvested and analyzed for up-regulation of CD40, CD80 and CD86 using 3 color flow cytometric analysis. Tables 16, 17 and 18 show the fold increase in mean fluorescence intensity from control (non-stimulated cells) for dendritic cells, monocytes, and B cells, respectively.

[3] = system: CD83 and CD80 on purified dendritic cells; assay: Dendritic cell maturation: CD83 and CD80 expression (flow cytometry); type: cell-based; conditions: GV-23 20 μg/ml or LPS 10 μg/ml, 20 hour, mean ± SD (n = 3)
Method: The effect of the recombinant M. vaccae protein GV-23 on the maturation and function of dendritic cells was examined as follows.
Purified dendritic cells (5×10^4−10^5 cells/ml) were stimulated with GV-23 (20 μg/ml) or LPS (10 μg/ml) as a positive control. Cells were cultured for 20 hour and then analyzed for CD83 (a maturation marker) and CD80 expression by flow cytometry. Non-stimulated cells were used as a negative control.

[4] = system: dendritic cells with allogeneic T cells; assay: Dendritic cell mixed lymphocyte reaction (MLR) assay; type: cell-based; conditions: 20 μg/ml for 18-20 hours, then allogeneic T cells
Method: The ability of GV-23 to enhance dendritic cell function as antigen presenting cells was determined by mixed lymphocyte reaction (MLR) assay. Purified dendritic cells were cultured in medium alone or with GV-23 (20 μg/ml) for 18-20 hours and then stimulated with allogeneic T cells (2×10^5 cells/well). After 3 days of incubation, (^3H)-thymidine was added. Cells were harvested 1 day later and the uptake of radioactivity was measured.

[5] = system: CD40, CD80 and CD86 on B cells; assay: CD40, CD80 and CD86 expression on B cells (3 color flow cytometry); type: cell-based, human; conditions: 20 ug/ml, 48 hours, vs non-stimulated cells
From the text: as §1

[6] = system: IFNγ production by lymph node cells; assay: IFNγ production by lymph node cells from GV protein-immunized mice (enzyme-linked immunoassay); type: cell-based, female BALB/cByJ mice; conditions: lymph node cells of mice immunized with the same GV protein
Method: (§2) The immunogenicity of Mycobacterium vaccae recombinant proteins (referred to herein as GV recombinant proteins) was tested by injecting female BALB/cByJ mice in each hind foot-pad with 10 μg of recombinant GV proteins emulsified in incomplete Freund's adjuvant (IFA). Control mice received phosphate buffered saline in IFA. The draining popliteal lymph nodes were excised 10 days later and the cells obtained therefrom were stimulated with the immunizing GV protein and assayed for proliferation by measuring the uptake of tritiated thymidine. The amount of interferon gamma (IFNγ) produced and secreted by these cells into the culture supernatants was assayed by standard enzyme-linked immunoassay.

[7] = system: IL-1β, TNF-α, IL-12 and IFN-γ production in PBMC; assay: Cytokine production in PBMC from normal donors (ELISA); type: cell-based, human
[8] = system: popliteal lymph node cells; assay: Proliferation of lymph node cells from GV protein-immunized mice; type: cell-based, female BALB/cByJ mice; conditions: lymph node cells of mice immunized with 10 μg of the same GV protein in IFA
Method: as §2

[9] = system: CD69 on αβT cells, γδT cells and NK cells; type: cell-based, human
[10] = system: CD40, CD80 and CD86 on dendritic cells; type: cell-based, human
[11] = Dose of GV protein used in vitro 2 μg/ml
[12] = Dose of GV protein used in vitro 50 μg/ml
[13] = dendritic cells, 20 ug/ml, 48 hours, vs non-stimulated cells

TLR2 mAb: Functional Grade mAb to human TLR2, clone TL2.1, IgG2a isotype (eBioscience) [reference compound]
inhibition of M. vaccae-, AVAC- and DD-M. vaccae-induced production of IL-12p40 by THP-1 cells [1]: inhibited by TLR2 and CD14 mAbs in a dose-dependent fashion

B1: GV-23: recombinant M. vaccae antigen, amino acid sequence SEQ ID NO: 38 (protein, listed as Mycobacterium vaccae)
chain: VIEIDHVTKRFGDYLAVADADFSIAPGEFFSMLGPSGCGKTTTLRMIAGFETPTEGAIRLEGADVSRTPPNKRNVNTVFQHYALFPHMTVWDNVAYGPRSKKLGKGEVRKRVDELLEIVRLTEFAERRPAQLSGGQQQRVALARALVNYPSALLLDEPLGALDLKLRHVMQFELKRIQREVGITFIYVTHDQEEALTMSDRIAVMNAGNVEQIGSPTEIYDRPATVFVASFIGQANLWAGRCTGRSNRDYVEIDVLGSTLKARPGETTIEPGGHATLMVRPERIRVTPGSQDAPTGDVACVRATVTDLTFQGPVVRLSLAAPDDSTVIAHVGPEQDLPLLRPGDDVYVSWAPEASLVLPGDDIPTTEDLEEMLDDS
CD40 expression, fold increase in mean fluorescence intensity from control [2]: 2.3 fold | CD80 expression, fold increase in mean fluorescence intensity from control [2]: 1.5 fold | CD86 expression, fold increase in mean fluorescence intensity from control [2]: 0.7 fold | % CD80-positive dendritic cells ([3]; control 9 ± 6.6): 24.7 ± 14.2% | % CD83-positive dendritic cells ([3]; control 15 ± 8): 35 ± 13.2% | dendritic cell mixed lymphocyte reaction ((3H)-thymidine uptake) [4]: enhances dendritic cell mixed lymphocyte reaction | CD40 expression, fold increase in mean fluorescence intensity from control [5]: 1.2 fold | CD80 expression, fold increase in mean fluorescence intensity from control [5]: 1.1 fold | CD86 expression, fold increase in mean fluorescence intensity from control [5]: 1.4 fold | IFNγ [6, 11]: 9.17 ± 1.51 ng/mL | IFNγ ([6]; Dose of GV protein used in vitro 10 μg/ml): 30.70 ± 4.48 ng/mL | IFNγ [6, 12]: 59.67 ± 14.88 ng/mL | production of IL-1β, TNF-α, IL-12 and IFN-γ by PBMC [7]: stimulate the production of IL-1β, TNF-α and IL-12; also recorded: induced significant levels of the four cytokines examined | IL-1β production by PBMC relative to known adjuvants ([7]; GV-23 20 μg/ml): higher levels of IL-1β production being seen with GV-23 than with any of the known adjuvants | Proliferation (cpm) ([8]; Dose of GV protein used in vitro 0.08 μg/ml): 7,393 ± 2,188 cpm | Proliferation (cpm) [8, 11]: 15,423 ± 2,858 cpm | Proliferation (cpm) [8, 12]: 35,598 ± 1,330 cpm | CD69 expression on NK cells, comparison with adjuvants [9]: induced CD69 expression on NK cells | percentage of αβT cells expressing CD69 ([9]; PBMC from normal donors, 20 ug/ml, 24 hours, control 3.8): 5.8% | percentage of NK cells expressing CD69 ([9]; PBMC from normal donors, 20 ug/ml, 24 hours, control 4.8): 46.8% | percentage of γδT cells expressing CD69 ([9]; PBMC from normal donors, 20 ug/ml, 24 hours, control 6.2): 10.0% | CD40, CD80 and CD86 expression in dendritic cells, comparison with adjuvants [10]: significant up-regulation of CD40, CD80 and CD86 | CD40, CD80 and CD86 expression on dendritic cells ([10]; 20 ug/ml, 48 hours, T cell-depleted PBMC): highest levels of expression | CD40 expression, fold increase in mean fluorescence intensity from control [10, 13]: 6.0 fold | CD80 expression, fold increase in mean fluorescence intensity from control [10, 13]: 4.5 fold | CD86 expression, fold increase in mean fluorescence intensity from control [10, 13]: 1.8 fold
